Test results taken from patent CN116199778A (SHANGHAI JUNSHI BIOSCIENCES CO LTD; JUNMENG BIOSCIENCES CO …, dated 2023).

How the values were obtained:
[1] = target: 4-1BB on the surface of Jurkat NFKB 4-1BB cells (UniProt Q07011 24-255, limits assumed); assay: cell-based or functional assay
[2] = target: T1, 含有His标签的鼠4-1BB (mouse 4-1BB with His tag, Sino Biological 50811-M08H) (mouse, UniProt P20334 24-187); assay: ELISA, His-tagged mouse 4-1BB coated at 1.0 ug/mL, antibody titrated, anti-human IgG4 Fc HRP detection
T1 construct: Bought protein; Coated on the ELISA plate at 1.0 ug/mL; not shown: His tag
T1 sequence (looked up): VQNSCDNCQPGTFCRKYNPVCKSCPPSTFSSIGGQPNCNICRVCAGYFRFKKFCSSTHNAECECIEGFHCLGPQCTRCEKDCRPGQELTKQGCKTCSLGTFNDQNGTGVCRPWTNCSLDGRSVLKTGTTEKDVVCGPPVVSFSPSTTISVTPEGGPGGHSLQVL

Chain of 4-1BB on the surface of Jurkat NFKB 4-1BB cells (Q07011 24-255 limits assumed): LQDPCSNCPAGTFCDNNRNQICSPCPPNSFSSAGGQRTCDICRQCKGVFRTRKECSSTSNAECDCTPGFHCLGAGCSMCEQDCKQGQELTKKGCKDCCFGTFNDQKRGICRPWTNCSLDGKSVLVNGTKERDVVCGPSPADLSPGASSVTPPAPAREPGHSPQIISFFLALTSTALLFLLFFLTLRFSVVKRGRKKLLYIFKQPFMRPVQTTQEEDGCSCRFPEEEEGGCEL

B1: JS011-phage6 (antibody, V domains shown)
VH: QVQLVQSGAEVKKPGASVKVSCKASGYTFTGQYIHWARQAPGQGLEWMGWINPNSGGTNYAQKFQGRVTMTRDTSISTAYMELSRLRSDDTAVYYCARDKAGADYWGQGTLVTVSS
VL: ELALTQPPSVSGSPGQSITISCTGTSSDIGGYDYVSWYQQYPGKAPKLMISGVSNRPSGVSNRFSGSKSGNTASLIISGLQAEDEGDYYCSSYTSRSTRWVFGGGTKLTVL
EC50, luciferase reporter (RLU), Raji / Jurkat NFKB 4-1BB two-cell system [1]: 2.71 µg/mL | EC50, luciferase reporter (RLU), THP-1 / Jurkat NFKB 4-1BB two-cell system [1]: 0.283 µg/mL | binding result [2]: no binding (tested: 1μg/ml起始)

B2: JS011-phage3 (antibody, V domains shown)
VH: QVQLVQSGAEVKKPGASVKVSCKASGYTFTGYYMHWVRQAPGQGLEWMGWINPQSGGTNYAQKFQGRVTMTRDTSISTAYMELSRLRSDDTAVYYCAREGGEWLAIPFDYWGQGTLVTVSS
VL: ELELTQPPSVSVSPGQTASITCSADKLGDKYASWYQQKPGQSPVLVLYEDSKRPSGIPERISGSNSGNTATLTIRGTQPMDEADYYCQTWDTNTVLFGGGTRLTVL
EC50, luciferase reporter (RLU), Raji / Jurkat NFKB 4-1BB two-cell system [1]: 9.45 µg/mL | EC50, luciferase reporter (RLU), Raji / Jurkat NFKB (4-1BB low expression) two-cell system [1]: 9.45 µg/mL | EC50, luciferase reporter (RLU), THP-1 / Jurkat NFKB 4-1BB two-cell system [1]: 0.00664 µg/mL

B3: Urelumab (antibody, V domains shown)
VH: QVQLQQWGAGLLKPSETLSLTCAVYGGSFSGYYWSWIRQSPEKGLEWIGEINHGGYVTYNPSLESRVTISVDTSKNQFSLKLSSVTAADTAVYYCARDYGPGNYDWYFDLWGRGTLVTVSS
VL: EIVLTQSPATLSLSPGERATLSCRASQSVSSYLAWYQQKPGQAPRLLIYDASNRATGIPARFSGSGSGTDFTLTISSLEPEDFAVYYCQQRSNWPPALTFGGGTKVEIK
EC50, luciferase reporter (RLU), Raji / Jurkat NFKB 4-1BB two-cell system [1]: 7.24 µg/mL | EC50, luciferase reporter (RLU), Raji / Jurkat NFKB (4-1BB low expression) two-cell system [1]: 86 µg/mL | EC50, luciferase reporter (RLU), THP-1 / Jurkat NFKB 4-1BB two-cell system [1]: 219 µg/mL
